First the molecules themselves.
B1: Complex of His-tagged zebrafish GFRα1 (residues 31-351) and zebrafish GDNF (complex, zebrafish (Danio rerio))
chain 1: DCVKANELCLKEPGCSSKYRTMRQCVAGRESNFSMATGMEAKDECRLVLDALKQSPLYNCRCKRGMKKEKNCLRIYWGIYQHLQGNDLLEDSPYEPVNSRLSDIFRLAPIYSGEPALAKENNCLNAAKACNLNDTCKKYRSAYISPCTSRVSTAEVCNKRKCHKALRQFFDKVPPKHSYGMLYCSCPLGDQSACSERRRQTIVPACSYEDKERPNCLTLQVSCKTNYICRSRLADFFTNCQPEPLSLSGCLKENYADCLLSYSGLIGTVMTPNYLRSPKISVSPFCDCSSSGNSKEECDRFTEFFTDNACLRNAIQAFGNG
chain 2: SSDVEPQMKRDRVRQKAAANTEKSGGRGRGERKRSRGRARSRDDRVKGQGRGCLLKEIHLNVTDLDLGYRTKEELIFRYCSGPCHDAETNYDKILNNLTHNKKLDKDTPSRTCCRPIAFDDDISFLDDSLEYHTLKKHSAKKCACV
notes: GDNF family receptor alpha-1, Danio rerio, UniProt Q98TT9, residues 31-351, lacking the GPI-anchor; Glial cell line-derived neurotrophic factor, Danio rerio, UniProt Q98TU0, mature GDNF, residues 90-236; as m6; In the BLI experiment His-tagged zGFRα1 was held on the Ni-NTA tip, and zGDNF was supplied pre-mixed with zRET^ecd; The stoichiometry of the complex was not measured here; also called …
B2: Zebrafish (Danio rerio) mature GDNF (residues 90-236) (ligand, UniProt Q98TU0 90-235, looked up)
chain: B1 chain 2
notes: Glial cell line-derived neurotrophic factor, Danio rerio, UniProt Q98TU0, mature GDNF, residues 90-236; 'zGDNF' is the construct in the original pK503.9 vector (Flag-tag only); Whether its Flag tag was removed is not clear; It appears as a mixture of a DTT-sensitive dimer and monomer, and it is glycosylated; also called zGDNF; zebrafish GDNF; source: Hi5 insect cells, baculovirus, secreted; …
B3: Zebrafish (Danio rerio) RET extracellular domain (residues 22-626) (domain or fragment, UniProt A8E7C6 22-626, looked up)
chain: GLYFPQRLYTENIYVGQQQGSPLLQVISMREFPTERPYFFLCSHRDAFTSWFHIDEASGVLYLNKTLEWSDFSSLRSGSVRSPKDLTLKVGVSSTPPMKVMCTILPTVEVKLSFINDTAPSCGQVELSTLCFPEKISNPHITENREPGALRQLRRFTHMSICPNYTISYGVVAGSSVPFAVDDSTSELVVTAQVDREEKEVYHLDIVCMVRTERNLEEVFRSLHVNIYDEDDNSPYVNGTDTEDVLVEFDRSEGTVFGTLFVYDRDTTPVYPTNQVQNKLVGTLMTNDSWIKNNFAIEHKFREEKAIFGNVRGTVHEYKLKLSQNLSVTEQRSFLLGYLVNDTTFPGPEGTVLLHFNVTVLPVPIRFSNVTYSFTVSQKATTYSQIGKVCVENCQKFKGIDVTYQLEIVDRNITAEAQSCYWAVSLAQNPNDNTGVLYVNDTKVLRRPECQELEYVVIAQEQQNKLQAKTQLTVSFQGEADSLKTDEPRFPACAEKRQRGDCEATRGLGAPTGRCQWRQGRDKGISKRYSTCSPNLGTCPDGYCDAIESKNISICPQDCSSEAIIGGYERDLYGIKAGHGTCYCFEGKCFCERDEPEDDICNDMC
notes: RET, Danio rerio, UniProt A8E7C6, extracellular domain, residues 22-626; cloned from zRET-CS2-MT+; The protein is glycosylated; also called zRET^ecd; zRET; source: Hi5 insect cells, baculovirus, secreted

Series [1] concerns the target B3. In words: BLI; BLItz; His-tagged zGFRα1 (58 μM, 4 μl) immobilised on Ni-NTA tips; pre-mixed zRET^ecd and zGDNF at 0.3-44 μM; 20 mM HEPES pH 8, 150 mM NaCl, 1 mM CaCl2; plateau values fitted as Scatchard plots; triplicate. As to conditions: both partners purified.
Series [2] concerns the molecule itself. The experiment in a line: SDS-PAGE with and without DTT; purified zGDNF on a Coomassie-stained gel, with 1 mM DTT or without.
Series [3] deals with the molecule itself. In words: SEC + native gel or EMSA; affinity-purified zRET^ecd separated by SEC into two peaks; fractions and pools run on BN-PAGE and SDS-PAGE.

One may read the Kd as the constant that tells how readily two partners part at equilibrium. Low values mean tighter binding, high ones weaker binding. B1 registered an equilibrium dissociation constant (Kd) in series [1] of 5.9 ± 1.5 µM.

Broadly, the stoichiometry N is a count of units in the complex or per binding partner. Regarding B2, the “stoichiometry N” value in series [2] stood at 2.

Consider B3, for which, in series [3], the “stoichiometry N” value is 2.

The values above are taken from PMC5415192, “Zebrafish GDNF and its co-receptor GFRα1 activate the human RET receptor and promote the survival of dopaminergic neurons in vitro” (PLoS ONE, 2017).
